Experimental data published in paper PMC11237551, “MRS2 missense variation at Asp216 abrogates inhibitory Mg^2+ binding, potentiating cell migration and apoptosis resistance” (Protein Science : A Publication of the Protein Society, 2024).
Residue numbers refer to the chain shown, from its start. In names and notes the source's numbering stands.

B1: human MRS2 amino terminal domain, residues 58-333 (MRS2_(58‐333)), wild type (domain or fragment, UniProt Q9HD23-1 58-333, looked up)
chain: DRLRVAGEVHRFRTSDVSQATLASVAPVFTVTKFDKQGNVTSFERKKTELYQELGLQARDLRFQHVMSITVRNNRIIMRMEYLKAVITPECLLILDYRNLNLEQWLFRELPSQLSGEGQLVTYPLPFEFRAIEALLQYWINTLQGKLSILQPLILETLDALVDPKHSSVDRSKLHILLQNGKSLSELETDIKIFKESILEILDEEELLEELCVSKWSDPQVFEKSSAGIDHAEEMELLLENYYRLADDLSNAARELRVLIDDSQSIIFINLDSHRN
notes: Mitochondrial RNA splicing protein 2 (MRS2), human, amino terminal (matrix) domain, residues 58-333 of NCBI NP_065713.1 (pre-protein numbering); theoretical monomer 32.5 kDa including cloning artifacts; Surmise: E. coli, His tag removed by protease; also called MRS2‐NTD; WT; source: recombinantly expressed and purified, as described previously (Uthayabalan et al., 2023)
B2: human MRS2 amino terminal domain, residues 58-333, D216Q mutant (MRS2_(58‐333)‐D216Q) (domain or fragment, UniProt Q9HD23-1 58-333, looked up)
chain: B1 chain with D159Q
notes: theoretical monomer 32,517 Da; construct details in Uthayabalan et al., 2023; also called MRS2‐NTD‐D216Q; source: recombinantly expressed and purified as described for MRS2_(58‐333) (Uthayabalan et al., 2023)
B3: human MRS2 amino terminal domain, residues 58-333, E261Q mutant (MRS2_(58‐333)‐E261Q) (domain or fragment, UniProt Q9HD23-1 58-333, looked up)
chain: B1 chain with E204Q
notes: construct details in Uthayabalan et al., 2023; also called MRS2‐NTD‐E261Q; source: recombinantly expressed and purified as described for MRS2_(58‐333) (Uthayabalan et al., 2023)

Experiments:
[1] = target: the molecule itself; experiment: AUC; sedimentation equilibrium, 1.25 mg/mL protein, with 5 mM MgCl2, 20°C, 20 mM Tris, 150 mM NaCl, 1 mM DTT, pH 8.0; global fit of 8000, 12,000, 16,000 and 20,000 rpm; dimer to monomers
[2] = target: the molecule itself; experiment: AUC; sedimentation equilibrium, 0.313 mg/mL protein, no Mg2+, 20°C, 20 mM Tris, 150 mM NaCl, 1 mM DTT, pH 8.0; global fit of 8000, 12,000, 16,000 and 20,000 rpm; dimer to monomers
[3] = target: the molecule itself; experiment: AUC; sedimentation equilibrium, 0.313 mg/mL protein, with 5 mM MgCl2, 20°C, 20 mM Tris, 150 mM NaCl, 1 mM DTT, pH 8.0; global fit of 8000, 12,000, 16,000 and 20,000 rpm; dimer to monomers
[4] = target: the molecule itself; experiment: AUC; sedimentation equilibrium, 0.625 mg/mL protein, no Mg2+, 20°C, 20 mM Tris, 150 mM NaCl, 1 mM DTT, pH 8.0; global fit of 8000, 12,000, 16,000 and 20,000 rpm; dimer to monomers
[5] = target: the molecule itself; experiment: AUC; sedimentation equilibrium, 0.625 mg/mL protein, with 5 mM MgCl2, 20°C, 20 mM Tris, 150 mM NaCl, 1 mM DTT, pH 8.0; global fit of 8000, 12,000, 16,000 and 20,000 rpm; dimer to monomers
[6] = target: the molecule itself; experiment: AUC; sedimentation equilibrium, 1.25 mg/mL protein, no Mg2+, 20°C, 20 mM Tris, 150 mM NaCl, 1 mM DTT, pH 8.0; global fit of 8000, 12,000, 16,000 and 20,000 rpm; dimer to monomers
[7] = target: the molecule itself; experiment: SEC-MALS; Superdex 200 Increase 10/300 GL, 100 uL injected at 2.5 mg/mL, 20 mM Tris pH 8, 150 mM NaCl, 1 mM DTT, ~10°C, buffer nominally free of Mg2+

Protein	Kd [1] [µM]	stoichiometry N [1]	Kd [2] [µM]	stoichiometry N [2]	Kd [3] [µM]	stoichiometry N [3]	Kd [4] [µM]	stoichiometry N [4]	Kd [5] [µM]	stoichiometry N [5]	Kd [6] [µM]	stoichiometry N [6]	stoichiometry N [7]
B1	55.4	1.5	17.4	1.7	1760	1	24.3	1.6	146	1.1	16.4	1.7	2
B2	33.6	1.6	–	–	11.2	2	–	–	22.2	1.8	–	–	–
B3	–	–	–	–	–	–	–	–	–	–	–	–	2
